The data set concerns Escherichia coli TOP10. Briefly: shrunken log2 fold change of peptide-encoding DNA abundance (4.5 h post-induction vs induction); higher = less antimicrobial activity (less host growth inhibition). The conditions noted are these: time post-induction: 4.5 h; library: site-saturation at positions 5, 18, 19, 20.
In the case of RRIRVRPPRLPRPRPRPSCVPRP, the “shrunken log2 fold change” value is -0.583.
The figure for RRIRKRPPRLPRPRPRPCDSPRP is -0.212; for RRIRSRPPRLPRPRPRPCRKPRP it is -0.012.
The figure for RRIRNRPPRLPRPRPRPGDSPRP is -0.0564.
RRIRFRPPRLPRPRPRPMKDPRP: the “shrunken log2 fold change” value is -0.47.
For the sequence RRIRGRPPRLPRPRPRPHSKPRP, the “shrunken log2 fold change” value came out at 0.205.
As for RRIRDRPPRLPRPRPRPFAFPRP, the “shrunken log2 fold change” value came to 0.249.
The result for RRIRVRPPRLPRPRPRPPFIPRP reads -0.23; that for RRIRMRPPRLPRPRPRPFSNPRP, -0.175.
The figure for RRIRDRPPRLPRPRPRPFHIPRP is -0.254; for RRIRMRPPRLPRPRPRPLCQPRP it is 0.0549.
The result for RRIRNRPPRLPRPRPRPDDEPRP reads -0.00101; that for RRIRERPPRLPRPRPRPKTRPRP, -0.0349; that for RRIRPRPPRLPRPRPRPPVEPRP, 0.0793.
On to RRIRHRPPRLPRPRPRPGLGPRP, for which the “shrunken log2 fold change” value turned out to be 0.404.
The result for RRIRKRPPRLPRPRPRPNDGPRP reads -0.0887; that for RRIRERPPRLPRPRPRPMKDPRP, 0.13.
Turning to RRIRTRPPRLPRPRPRPWQKPRP, the “shrunken log2 fold change” value is -0.1.
In the case of RRIRLRPPRLPRPRPRPYMHPRP, the “shrunken log2 fold change” value is -0.408.
The figure for RRIRLRPPRLPRPRPRPFTEPRP is -0.163; for RRIRWRPPRLPRPRPRPIRWPRP it is 0.0855; for RRIRNRPPRLPRPRPRPGAQPRP it is 0.0369.
The result for RRIRNRPPRLPRPRPRPLAKPRP reads 0.249; that for RRIRNRPPRLPRPRPRPVNPPRP, -0.216; that for RRIRMRPPRLPRPRPRPMLHPRP, 0.0756.
The result for RRIRIRPPRLPRPRPRPVTNPRP reads -0.208; that for RRIRVRPPRLPRPRPRPPEPPRP, 0.382; that for RRIRTRPPRLPRPRPRPINMPRP, -0.0135.
Regarding RRIRKRPPRLPRPRPRPPKLPRP, the “shrunken log2 fold change” value was 0.658.
The result for RRIRRRPPRLPRPRPRPPQMPRP reads 1.24; that for RRIRLRPPRLPRPRPRPADNPRP, -0.26.
The result for RRIRYRPPRLPRPRPRPQKPPRP reads -0.0745.
The figure for RRIRDRPPRLPRPRPRPTMDPRP is -0.0444.
Consider RRIRDRPPRLPRPRPRPGPYPRP, for which the “shrunken log2 fold change” value was -0.079.
For the sequence RRIRARPPRLPRPRPRPIYGPRP, the “shrunken log2 fold change” value worked out at 0.0455.
Consider RRIRWRPPRLPRPRPRPVRDPRP, for which the “shrunken log2 fold change” value came to 0.687.
The result for RRIRDRPPRLPRPRPRPRMWPRP reads 0.0802; that for RRIRHRPPRLPRPRPRPLAAPRP, 0.325.
The result for RRIRHRPPRLPRPRPRPIGDPRP reads -0.00136.
Regarding RRIRFRPPRLPRPRPRPHDSPRP, the “shrunken log2 fold change” value was determined as 0.0531.
The figure for RRIRLRPPRLPRPRPRPVKQPRP is -0.0196; for RRIRNRPPRLPRPRPRPGLFPRP it is 0.0823; for RRIRWRPPRLPRPRPRPQDSPRP it is 0.0627.
The figure for RRIRMRPPRLPRPRPRPRNAPRP is 2.06; for RRIRDRPPRLPRPRPRPMVCPRP it is 0.141; for RRIRHRPPRLPRPRPRPNCGPRP it is 0.00696.
The result for RRIRERPPRLPRPRPRPMGWPRP reads -0.218; that for RRIRIRPPRLPRPRPRPDHSPRP, -0.152; that for RRIRCRPPRLPRPRPRPFTWPRP, -0.188.
As to RRIRERPPRLPRPRPRPTMGPRP, the “shrunken log2 fold change” value is -0.253.
RRIRLRPPRLPRPRPRPVFGPRP: the “shrunken log2 fold change” value worked out at 0.0724.
The result for RRIRMRPPRLPRPRPRPAPGPRP reads 2.04; that for RRIRVRPPRLPRPRPRPQWGPRP, -0.149; that for RRIRGRPPRLPRPRPRPKYIPRP, 0.167.
The figure for RRIRNRPPRLPRPRPRPRNRPRP is -0.000801.
The result for RRIRTRPPRLPRPRPRPPEDPRP reads -0.0168; that for RRIRGRPPRLPRPRPRPGYRPRP, 0.189.
For RRIRGRPPRLPRPRPRPYDNPRP, the “shrunken log2 fold change” value is -0.183.
On to RRIRLRPPRLPRPRPRPVPRPRP, for which the “shrunken log2 fold change” value was found to be 0.352.
Consider RRIRNRPPRLPRPRPRPCDHPRP, for which the “shrunken log2 fold change” value was -0.0208.
In the case of RRIRIRPPRLPRPRPRPWRSPRP, the “shrunken log2 fold change” value worked out at 0.00683.
The figure for RRIRGRPPRLPRPRPRPKHEPRP is 0.679; for RRIRTRPPRLPRPRPRPDDTPRP it is -0.12.
Turning to RRIRPRPPRLPRPRPRPHMNPRP, the “shrunken log2 fold change” value is -0.6.
The result for RRIRHRPPRLPRPRPRPKPDPRP reads 0.0401; that for RRIRVRPPRLPRPRPRPHRRPRP, -0.328; that for RRIRIRPPRLPRPRPRPPIYPRP, -0.592.
The figure for RRIRVRPPRLPRPRPRPKMHPRP is -0.198; for RRIRIRPPRLPRPRPRPSLQPRP it is -0.331.
The result for RRIRPRPPRLPRPRPRPSVRPRP reads 0.129; that for RRIRPRPPRLPRPRPRPNAPPRP, 0.0216.
Consider RRIRMRPPRLPRPRPRPRCQPRP, for which the “shrunken log2 fold change” value is 0.00313.
The result for RRIRVRPPRLPRPRPRPFIKPRP reads -0.865; that for RRIRSRPPRLPRPRPRPITAPRP, -0.0161; that for RRIRKRPPRLPRPRPRPGNDPRP, 0.054.
The figure for RRIRCRPPRLPRPRPRPNGTPRP is -0.0476; for RRIRNRPPRLPRPRPRPPHVPRP it is 0.147; for RRIRCRPPRLPRPRPRPKIKPRP it is -0.287.
The figure for RRIRERPPRLPRPRPRPMGSPRP is 0.00489; for RRIRERPPRLPRPRPRPWEQPRP it is -0.131.
RRIRERPPRLPRPRPRPLPVPRP: the “shrunken log2 fold change” value is -0.0551.
The result for RRIRFRPPRLPRPRPRPSNHPRP reads -0.681; that for RRIRQRPPRLPRPRPRPLQTPRP, -0.339.
The figure for RRIRRRPPRLPRPRPRPCDAPRP is 0.221; for RRIRRRPPRLPRPRPRPPPIPRP it is 0.978.
The result for RRIRKRPPRLPRPRPRPERKPRP reads 0.582; that for RRIRARPPRLPRPRPRPQAYPRP, -0.0327.
As to RRIRLRPPRLPRPRPRPQDKPRP, the “shrunken log2 fold change” value is -0.431.
The result for RRIRARPPRLPRPRPRPIFGPRP reads 0.0662; that for RRIRKRPPRLPRPRPRPWEVPRP, 0.0986; that for RRIRMRPPRLPRPRPRPWVVPRP, 0.346.
As to RRIRHRPPRLPRPRPRPDVFPRP, the “shrunken log2 fold change” value was -0.37.
The result for RRIRNRPPRLPRPRPRPFMGPRP reads -0.168; that for RRIRRRPPRLPRPRPRPNQKPRP, -0.128.
Take RRIRQRPPRLPRPRPRPVRMPRP: the “shrunken log2 fold change” value turned out to be 0.149.
The result for RRIRDRPPRLPRPRPRPQNVPRP reads -0.01; that for RRIRPRPPRLPRPRPRPESPPRP, 0.161; that for RRIRYRPPRLPRPRPRPLEKPRP, 0.0601.
Turning to RRIRPRPPRLPRPRPRPIYAPRP, the “shrunken log2 fold change” value was -0.0839.
As for RRIRCRPPRLPRPRPRPNHFPRP, the “shrunken log2 fold change” value is -0.484.
The figure for RRIRTRPPRLPRPRPRPGQFPRP is -0.182; for RRIRNRPPRLPRPRPRPLGPPRP it is 0.0324; for RRIRMRPPRLPRPRPRPNVTPRP it is 0.0238.
Take RRIRDRPPRLPRPRPRPIYCPRP: the “shrunken log2 fold change” value was determined as 0.0039.
The figure for RRIRHRPPRLPRPRPRPYMDPRP is -0.356; for RRIRGRPPRLPRPRPRPTDDPRP it is 1.01; for RRIRMRPPRLPRPRPRPHFSPRP it is -0.194.
The figure for RRIRYRPPRLPRPRPRPECFPRP is -0.288; for RRIRMRPPRLPRPRPRPCSQPRP it is -0.00549; for RRIRSRPPRLPRPRPRPGVEPRP it is 0.463.
The figure for RRIRNRPPRLPRPRPRPHRRPRP is 0.143; for RRIRHRPPRLPRPRPRPQLIPRP it is 0.00748.
Turning to RRIRFRPPRLPRPRPRPGCYPRP, the “shrunken log2 fold change” value was -0.238.
For RRIRLRPPRLPRPRPRPWSWPRP, the “shrunken log2 fold change” value worked out at 0.0711.
The figure for RRIRQRPPRLPRPRPRPANKPRP is -0.397.
The result for RRIRMRPPRLPRPRPRPHLGPRP reads 0.086; that for RRIRWRPPRLPRPRPRPNGLPRP, 0.145.
The figure for RRIRRRPPRLPRPRPRPCWEPRP is 0.109; for RRIRFRPPRLPRPRPRPEMEPRP it is 0.252.
On to RRIRKRPPRLPRPRPRPHGAPRP, for which the “shrunken log2 fold change” value was 0.594.
The result for RRIRSRPPRLPRPRPRPRDAPRP reads 0.328.
The result for RRIRVRPPRLPRPRPRPRHGPRP reads 0.176; that for RRIRHRPPRLPRPRPRPMYEPRP, -0.0116; that for RRIRERPPRLPRPRPRPNLWPRP, 0.0252.
On to RRIRTRPPRLPRPRPRPGMSPRP, for which the “shrunken log2 fold change” value is -0.352.

For the origin of these results see the supplement of paper PMC9112550, “Optimization of the antimicrobial peptide Bac7 by deep mutational scanning” (BMC Biology, 2022).
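Note: peptides expressed intracellularly from a pBAD plasmid library in pooled LB shake-flask culture, induced with 0.3% L-arabinose, DNA abundance read by NGS, three biological replicates, DESeq2 with apeglm shrinkage.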
